Results: the DeepSol protein solubility set

Experiment: soluble on expression in E. coli; label from the status in PepcDB or PDB records

Q: With “MPIEIERRFLIGNDNWRQYADEPLLLRQGYLSVEKERTVRVRIAGKQAWLTLKGYISEISRSEFEYEIPLADAEKMMETMCPFKMEKWRYPVRWGGSLFEIDVFLGDNAPLVVAEIELPDENADFDRPDWLGREITADGMFTNAYLSRHPFSSWKNAV” as the sequence, how does the “soluble on expression in E. coli” value read?
A: The value was “not soluble”.

Q: For “MKMKLTAAIIAAFVIIMGCAGGPKASKADELDLAIRDTSDYLNDNIPKGNKIIILNIQSDYASLSDYIIDELIANAVNDKIFKVVDRAQLEQIRAELNFQWSGEVDDKSALEIGKFLGAQTIVSGAISELGDRYRMRLRALNVQTSQVQGQYNRNIAAGKTIAALMKGGKSANTVYGGRTASGNANDTTAANQTPSRQPATPSSPQGSTKPVTTTYKIGDTGPAGGLIFYDKGNNIGGWRYLEAAPSDLGPNKFITEDPGSLPKNLYDLWEKTDGDKGRGVGKGKYNTEFLMGIAQARGGFNWAIRLCDEYELNGYNDWFMPSRDELNFMYGNLHMKGLGNFRLEQYWSSTGWQDTWGSYSAWYINFEDGTAAYQNASQPRRFRPIRQF”, which “soluble on expression in E. coli” value is on record?
A: Its value is “not soluble”.

Q: With “MSHPSHVRALCASLCLGAGLPVHAGHVHAGQGFLEDAKASLTARNFHLHRNFVGDASQGKAEEWTQSFILDARSGFTQGSVGFGLDVLGLYSLKLDGGKGTAGTQLLPIHDDGRPADDFGRLAVAGKLRVSNSELKIGEWMPVLPILRSDDGRSLPQTFRGGQLSANEIAGLTLYAGQFRGNSPRNDASMQDMSLFGRPAATSDRFDFAGGEYRFNGERSLLGLWNAELKDIYRQQYLQLQHSQPLGDWLLGANLGGFRGRDAGSARAGKLDNRTVSALFSARYGLHTLYLGLQKVSGDDGWMRVNGTSGGTLANDSYNASYDNPGERSWQLRYDFDFVGLGLPGLTFMTRYLHGDHVRLAGVTDDGSEWGRESELGYTLQSGAFKRLNVRWRNSSQRRDWGSNTRFDENRLIVSYPLSLL” as the sequence, how does the “soluble on expression in E. coli” value read?
A: The value was “not soluble”.

Q: With “MGSDKIHHHHHHMIHTLQAQSNEITIPFAELDLLSHLTSEFEPKLFQQKIERLHQLDPGHPLPGIAKAYAFFHEQNFSAARRQLEQARSETGDHVRAHLLLGLMSEVENFQHEAERHFLDALSLFPEEPSVHRHLAVHYHEREFFGEAASHALQYLKKIGPGGEGTLMTIDMMQSMPGHDEHVLESLYSLLFEIPEHHHDMVFHSIAANNAEMRYELFHQALDGEPDEATVFRLDSMLSLMVEHSMWAAVYDQTKDRMCRTVFDTLCRDLTYRHAGIRSIPLYLTIRSRYFMRCLLHRS” as the sequence, how does the “soluble on expression in E. coli” value read?
A: Its value is “not soluble”.

Q: With “MSLTLSPTTIFPARCIHTMNATQPRATHVAVREGRILDVGDASLREAWPDAVVDSRFSDKVLLPGLIEGHSHLLEGGMWRFVYVGYYDRRGPDGRVWPGLKSYEAVIERLRAAEALMPDAQAPLLAWGFDPIHFGGQRMTTCHLDQVSKTRRIVVLHASVHLLNVNTAMLRQADIHAGLRIDGIVRAADGTPTGELQEFAAMFMVFKHIGNVFFDAGQSEEGIRNFAKIAQQAGVTTATDLSHALADDMVDNLVRVTGEDDFPLRLVAAYSPMRDMNGRSVDRVVRATQRNTAKLHFGLVKLVIDGSIQGYTARVRWPGYHNGAPNGMWIIAPQQLRELLMEYHKAGLTIHIHTNGDEATEVAMDALESVLAEYPRWDHRHTLQHCQMADAAQFRRMARLGMCANLFANHLYFWGDAHYTDTLGPARAFRMNAAKTALQAGVPISLHSDAPITPIGPLFTAWCAVNRVTAGGRILGSQERIPVMDALHAMTLGAAYTLKLDHLIGSIEVGKLADFAVLEADPLEVAPQDLAGIGIWGTVLGGRSFPAPQLSEGHHHHHH” as the sequence, how does the “soluble on expression in E. coli” value read?
A: Its value is “soluble”.

Q: Which “soluble on expression in E. coli” value does the source give for “MSDPRAPRLCVLIDADNVPANYAEAIFEEIAALGEASVRRIYGDWSAMRLNAWAKKVAALGLVADQQFSNTKGKNASDIGLVISAMDFLHSGLFDGFVLVSSDSDFTRLAARIREQGLDVYGIGEKKTPEAFRMACKRFIYVENLGSDEPPAREPRPADEPQQPPAQRGREKEEPMKAIPLIAAAMRAIDPEGEWYSLGQIGQFITQANPDFDTRTYGSAKLSDLIKKISRFEVKPGPGGQLLARDIALEHHHHHH” here?
A: Its value is “not soluble”.

Q: Which “soluble on expression in E. coli” value does the source give for “MGSDKIHHHHHHMRNYCRWCENDPLLIAYHDKEWGQREGNDQRLFEAMCLELFQSGLSWKTVLQKRDSIRKAFHHFELEKVATMNEQDVERLLKDKGIIRHRKKIEATIQNSRNVVRLQREFGSFREWIESLPNDVEAKAAMISEMFTYMGPITAKSFLEATGFIPVEHDKQCHLFEGKSLQIKPIGTADRGEVQQFFHQHWGSPEMVLSTGVFHCERLPGFLYRNKLGEIIGLITYVTHGKRSIEIISLDSVEEGKGIGTSLLQAVEAEAIEQQVRQIEVITTNDNLHALGFYQKRGFQLKELVVNGVEKARQLKPSIPRKSADGIPIRDELKLVKTMR” here?
A: Its value is “not soluble”.

Q: For “MAYDSRLPEQRDPATDPSANYDYQGDSVNRPDLVSALEQRVDGDVRFDTYTRELFATDASAYEQLPIGVVSPVSTEDVVAVMEYCAAEDIPVLPRGGGTSLAGQAVNEAVVLDFKRYMDE”, which “soluble on expression in E. coli” value is on record?
A: The value was “not soluble”.

Q: For “MSLRKVVILTLVTLFTCVEYSQAQTTEKEMTRQEKKAAQEALDKMLFQEAKEAIDNQTFVLEADRVYFKYGTSAFVSSNTNFVGLDGDKAVVQVAFNVPFSGPNGLGGITVDGNASNYKVKTDKKGNIHVSMNVMGIGISAQVNIDIPYGSNNATVDILPNFNSSHMTLSGQILPLKKANVFKGRSLEGHHHHHH”, which “soluble on expression in E. coli” value is on record?
A: Its value is “soluble”.

Q: For “MGSDKIHHHHHHAGLDAVEIGTGGNPGNHHCPTDELLASEAARKEYLEKFTSRGLTISAFSCHDNPISPNKEEAAASDEILRKSIKLASLMNVPVVNTFSGTAGDSDDAKAPNWPVIPWPTVYSDIKTWQWETKLIPYWKEIGELAAASGVKIGIELHGGFLCHTPYTILKLREETNDAIGVNLDPSHLWWQGIDPVGAIKILGKAGAIHHFHAKDTYLDQDNINMYGLTDMQPYGDVQTRSWTFRSVGCGHSLTEWSDIMSALRTYGYDYVVSIEHEDPLMSIDEGFDRAVTNLQSILIKDKPLDMWWA”, which “soluble on expression in E. coli” value is on record?
A: Its value is “not soluble”.

Q: With “MGSDKIHHHHHHMDAHRYCQERAAASGSSFYYSFVFLPTEVRRAITAFYALCRELDDVVDECHERQLAELKLAWWREEIGRFAAGAATHPATRALADTARGASVQPALLLEIVDGMAMDLEHARYADFRALKLYCHRAASVVGEIAAGIFEGARGEHDREVRRYAHELGLAFQLTNIIRDVGEDARRGRIYLPLDEMARFGVAEADVLEGRDTPAFRALMQFQYERAVAHYERALATLPSAARRAQRPGLVMAAIYRSLLDEIRRDGFPVLRARIALTPLRKLWLASRTWLFP” as the sequence, how does the “soluble on expression in E. coli” value read?
A: Its value is “not soluble”.

Q: Which “soluble on expression in E. coli” value does the source give for “MAHHHHHHMLQRVLARLPGAPACISDPLHMRALLELIGYVEPGDNLNRVAYAGELHYPPQAHAFMAELLAEGRQRDGGDAFDAIRERRAGPGYAIDSATTSEVDDAIGVCVDGATGAKYFVVYVSDATVYCPFDSTLEQLTARRLTTTTYLPEGVFFMLPKPIVEAATLREDRPCRTFNVIFQIDESTGEVKNYSVAVGWLDQLRRITYDQVQEIVNKEEGKEEGDEHDSAAVVAAAHDTDASSSPPLLAGCADSAHPPPAWMTREDKDNLFYILRCARLRLRARLERQQRQQQQHHHGAGGKDCGDEGVPATPPVDFSLPDPLIEVKGTKVLSVTDQVISTQDARLAVAELMIAANEVCSRVAQANHIAMPFRGTRTLSSDHLVAHYYTEPEGVRTLMSLDASHIFLAEAMQSSVRRLSTVTRAIYHHVPLHHAGLDTTFYTHSTSPLRRYADMLVHHQLKTWLWQQRRGGGSSDHTSATSTSAARAAMVAAPQQLIPEHAMASLCTMISAKQERASLLQDNSTRFWILRYLEDLERASANAAAAARGDGDGDTHRKKTYLCLVGETRRVVAAPAYSRFACSSAEMSQLLSLPLTAPSTTSSTVRRPASLQMDAVARWRQETPEFTYVSDVYIPEVQLAHTITHHRDDVLVGAVLECHITRVQPTQGVLELAIERVLPGGDERHYERLWMGGFVSQLDA” here?
A: The value was “not soluble”.

Q: Which “soluble on expression in E. coli” value does the source give for “MAHHHHHHMQDSVLLSEAFDASHRPWPNRPERKKGVSPSGRDFNMTLYRMKGCPYCERVEWLLRYHLVPFEIVEVGPLTTKGFPDQRFVQVPQIGLEAVADPNNPHAAEKSVAYVADSQHIIAAISAPLGFTKQLSDPRIMETRKWMMERFQAAGFLAINSTWRDAYTTYPHVTPSHYYYQNPIFHVVGATALYALAKYKVAPRFAAEESATSGFPSMENSLQRDPSAWLAAELSGFATRLSGGCHQLHGGKEPDIADVEMYGLTRIIDAHPRLRSALHEGPLKEWCAAMEAALQKRTHVTKK” here?
A: Its value is “not soluble”.

Q: For “MAESVNLVCTFCGSVCDDGQFDVEQFKSKKLCKLGSAKFSKKERIKAPMIDGKEVSYEEAIEKAAEILVNAKKPLLYGWASTVNEAIRLGVILTEKVGGVYDQCASVCHAPGTLAVIEEGLPGGTLGAIKNRADVVVFWGANPMEAHPRHGMRYSISAKGLLIKDRKQRKVIVVDVRPTKTAKLADEFIQIKPGYDYPIISALRAIISGNADAVPDEVGGVSKEKLVELAETMKNAKYGAVLYGLGVTQSRGRDRNVENAVKLIQLLNRHTRWVIWPMRGHYNVVGAGEVPAWEVGYQYAIDFSRGYPRFSPAEFSAVEVLKRKDCDAALIIASDPVAHFPRAAVKHLKEIPVIQIDPFPNMTTLVANVVIPSAVAGLEAEGTAYRMDGIALRVKKVVESSYWSDEQILEKLLEKVEELKG”, which “soluble on expression in E. coli” value is on record?
A: Its value is “not soluble”.

Q: For “MKINQMKKDQLFEGFYLIKSAEVRKTRAGKDFISLTFQDDTGEISGNLWDAQPYNVEEFTAGKVVFMKGRREVYNGTPQVNQITLRNVRPGEPNDPKDFKEKAPVSVTEVRDYLEQMLFKIENATWQRIVRALYRKYDKEFYTYPAAKTNHHAFESGLAYHTATMVRLADSIGDIYPDLNKSLLFAGIMLHDLAKVIELTGPDNTEYTVRGNLIGHISLINEEITKVISELQIDDTKEEVIVLRHVILSHHGQLEYGSPVRPRIMEAEIIHMIDNIDANMMMMTTALSRVSEGEMTNRIFAMDNRSFYKPNY”, which “soluble on expression in E. coli” value is on record?
A: Its value is “not soluble”.

Q: Which “soluble on expression in E. coli” value does the source give for “MGSDKIHHHHHHMFSISHPGDFESLKIIVNEINKLRKINKKLKKESFEVYVGFPEFVGTGRATLYKPNFEDLAKQVNYAKKHNVRFEVVINASCIGGMHLTPKGISYINWIFSQLKNIGVDSVALSDPYLVDLAKNNGLEVNVSCIALVDSLDKALFWDEKEVYAITLDSSINRHFDIIQEIRENVSCKLKILVNEACLYKCPMRIQHFNFFSHANAQNIPALDDYYYNKCINLRIKKKELIIKSPFIRPEDLKYYKGLVDIFKISGRSHPIGWIKRVINAYLNERWDGNLMELLDCPRELEHFYYLDNRALDGAIEYWKSCNKLCSKCNFCKELAEKALKVKY” here?
A: Its value is “not soluble”.

Q: For “MKYPFYYCCDNLDIKSISVIGDFNNWDGGKNILKRHDDGTWMTEIELSPGKYRYKFLINDSILFNDPNALIYTYDDKGGTASFIIIDESNKRIINTKPASLNIESYSFLSVDKELSYCENGERKCYKDKHSSIMLKIGFSDITGLHTVNAIWYAPNNEIHEIQESVLNDGEKNENRKNEALFQININDDTIAGEWKLQIFINGSLALEDSFTVELKQPEVLDKTALDDAAMLSADLEVPDFLIEEDMQNEFEAPEFEVESNLQTNAEKEEISEEDLLGLFDDIKEIDMPEKDTSGNQKTPAPDETEMPADGNIMNLFDEIRISELKDEKAQDTENNTESTSKEAEESDSAIDELLELREFIDSSQNSEKDSIESSGGKSGEEANEEDISDIFIDIKNRTD”, which “soluble on expression in E. coli” value is on record?
A: Its value is “not soluble”.

Q: For “MIIRETERLILREWKESDRDLFREINADEKVMEFFPFRRSHAEADAVLETINGMIRGSGYGFYAMELRETGEVMGFCGISPVMNLDPPFPIGTMEIGWRLATRFWGHGYVTEAAQSLLVMAFDEKETPEIVSFAVHDNHRSTAVMERIGLRRDPSRDFDHPRVPEETHPHLRPHVTYALTLEEWRAR”, which “soluble on expression in E. coli” value is on record?
A: Its value is “not soluble”.

Q: For “MAHHHHHHMEDAQSGRASFSLRVPLCELLPKDSSLTDSPQNAVNLLYTICFSNTELKLRMKVTNTSEEQSAPFQFAFHTYFAVSDVSRTVVSGVNRSPFVDNCKARGNPDAPPSPPEQLWIIRGEHDRVYPDQACAIVLQDMGAKTTLQISSPNLSDVCLWNPGESKCAAMKDMPPDGYKHFVCVEHGKMLKKVVVPPCSSWTGTQEIAIIAESPHESSI”, which “soluble on expression in E. coli” value is on record?
A: The value was “not soluble”.
